Experimental data from article PMC4692269.

Assays:
[1] = target: BG505 SOSIP.664 trimer, wild type, produced in 293S cells (HIV-1 (clade A strain BG505)) (UniProt Q2N0S6); test: ITC
[2] = target: BG505 SOSIP.664-N137A trimer, produced in 293S cells (HIV-1 (clade A strain BG505)); test: ITC

Work on “PGT124 (mature bnAb of the PGT121 family) (Fab)” yielded a Kd [1] of 32 nM and a fold higher affinity against 32H+3L on the same trimer [1] of 13 fold.

B1: PGT124 (mature bnAb of the PGT121 family) (Fab, V domains shown)
VH: QVQLQESGPGLVRPSETLSVTCIVSGGSISNYYWTWIRQSPGKGLEWIGYISDRETTTYNPSLNSRAVISRDTSKNQLSLQLRSVTTADTAIYFCATARRGQRIYGVVSFGEFFYYYYMDVWGKGTAVTVSS
VL: SYVSPLSVALGETARISCGRQALGSRAVQWYQHKPGQAPILLIYNNQDRPSGIPERFSGTPDINFGTTATLTISGVEVGDEADYYCHMWDSRSGFSWSFGGATRLTVL
B1 gave a fold enhanced affinity against its binding to the wild-type trimer [2] of 5 fold.

B2: 9H+3L Fab (inferred intermediate of the PGT122 branch) (Fab, V domains shown)
VH: QVQLQESGPGLVKPSETLSLTCSVSGASISDHYWSWIRQSPGKGLEWIGYVYDSGDTNYNPSLKSRVNLSLDTSKNQVSLSLTAVTAADSAIYYCARTQHGRRIYGIVAFREWFTYFYMDVWGQGTPVTVSS
VL: SYVLTQPSQLSVAPGETARISCGGRSLGSRAVQWYQQKPGQAPVLVIYNNQDRPSGIPERFSGSPDSNFGTTATLTISRVEAGDEADYYCHMWDSRSAINWVFGGGTKLTVL
Work on B2 yielded a fold enhanced affinity against its binding to the wild-type trimer [2] of 11 fold.

B3: 3H+3L Fab (inferred early precursor of the PGT121 family) (Fab, V domains shown)
VH: QVQLQESGPGLVKPSETLSLTCTVSGGSISNYYWSWIRQSPGKGLEWIGYISDSESTNYNPSLKSRVIISVDTSKNQLSLKLNSVTAADSAIYYCARAQQGKRIYGMVSFGEFFYYYYMDVWGKGTTVTVSS
VL: SYVLTQPSQLSVAPGETARISCGGRSLGSRAVQWYQQKPGQAPVLVIYNNQDRPSGIPERFSGSPDSNFGTTATLTISRVEAGDEADYYCHMWDSRSAINWVFGGGTKLTVL
B3 was tested, and the Kd [2] was 35 nM and the fold enhanced affinity against its binding to the wild-type trimer [2] was 15 fold.

B4: 32H+3L Fab (inferred intermediate of the PGT124 branch) (Fab, V domains shown)
VH: QVQLQESGPGLVKPSETLSVTCIVSGGSISNYYWTWIRQSPGKGLEWIGYISDRETTTYNPSLKSRVVISRDTSKNQLSLKLNSVTAADTAIYYCATARRGQRIYGVVSFGEFFYYYYMDVWGKGTAVTVSS
VL: SYVLTQPSQLSVAPGETARISCGGRSLGSRAVQWYQQKPGQAPVLVIYNNQDRPSGIPERFSGSPDSNFGTTATLTISRVEAGDEADYYCHMWDSRSAINWVFGGGTKLTVL
B4 gave a fold enhanced affinity against its binding to the wild-type trimer [2] of 16 fold.
